According to the supplement of paper PMC10567573:
± gives the standard deviation.

Assay: protein stability index of a GFP-peptide fusion (GPS, HEK-293T) (PSI 1-6); higher = more stable
Conditions: c terminus: a fixed tail appended
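Further: 24-mer peptide tiles fused after GFP, lentivirally expressed, FACS-sorted into six equal bins by GFP/DsRed ratio, decoded by Illumina sequencing, PSI is the read-weighted mean bin number.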

| Sequence | protein stability index (treatment: DMSO) | protein stability index (treatment: MLN4924 1 uM, 8 h) |
| --- | --- | --- |
| LPFGPFNGTAWTYHSQDELGGFSH [PKD2L1] | 2.41 ± 0.13 | 2.58 ± 0.18 |
| PLSWAPCGPIAGSRQALSFEVPPC | 3.21 ± 0.29 | 3.07 ± 0.19 |
| HLFAGAEVILLVVMAYDRYMAICK [OR4A15] | 2.67 ± 0.29 | 3.02 ± 0.68 |
| SQVRALDRFQVPTTEVNAWLVHRD [NFE2L1] | 3.37 ± 0.47 | 3.33 ± 0.48 |
| MPHARTETSVGTYESHSTSELEDL [TPD52L3] | 5.43 ± 0.18 | 5.37 ± 0.3 |
| NIAIMTEEPELSPAYLISEAMRRS [GFOD1] | 3.5 ± 0.27 | 3.72 ± 0.2 |
| YNPDLKKVVEAHKIVLCAVSHVFM [RHOBTB3] | 2.95 ± 0.57 | 2.97 ± 0.26 |
| GILRRILRTLRDFPAEERARVLDR [ANKRD9] | 2.39 ± 0.28 | 2.47 ± 0.65 |
| DNIKYQPKGGQVQIVTKKIDLSHV [MAP2] | 3.34 ± 0.38 | 3.47 ± 0.3 |
| DRERQPLLDRARGAAAQGQTQTVA [PI4K2A] | 5.22 ± 0.18 | 5.13 ± 0.28 |
| LASRNTLFNLSNFLDKSGSHGYDM [SNAP91] | 2.2 ± 0.26 | 2.61 ± 0.16 |
| VVKEEISDDNAKLPCFNGRVVSWL [DVL3] | 2.94 ± 0.29 | 3.19 ± 0.19 |
| MEDEMPKTLYVGNLSRDVTEALIL [TIA1] | 2.41 ± 0.36 | 2.63 ± 0.28 |
| ERAIETLIKNFHQYSVEGGKETLT [S100A14] | 3.53 ± 0.23 | 3.41 ± 0.22 |
| QIDQIKRHSNVVILTTSNITEKID [TRIP13] | 3.21 ± 0.28 | 3.4 ± 0.19 |
| IHSIPKGTEITIAFDFDYGNCKYK [KMT2E] | 2.19 ± 0.31 | 1.98 ± 0.32 |
| LIQRKKVHVFGDELSLVTLFRCIQ [TNFSF13B] | 2.25 ± 0.67 | 2.04 ± 0.34 |
| INRCSVLRQLGCKDGKNWNSNQAT [SPOPL] | 2.65 ± 0.28 | 2.78 ± 0.28 |
| TDPGDVPAFLKWLSLASLLVYVAA [SLC2A12] | 2.37 ± 0.39 | 2.66 ± 1 |
| KDRECQSQSLALKEQNNLKQLEFG [ZNF8] | 4.56 ± 0.3 | 4.78 ± 0.63 |
| GKKQEYLENRIQREIALAKKHGTQ [CHMP4C] | 3.92 ± 0.35 | 4.13 ± 0.14 |
| RCHTVPCAGSTALQEPGEPQGPPA [PXN] | 4.89 ± 0.15 | 4.92 ± 0.25 |
| DYSDHPSGGSYRDSYESYGNSRSA [RBMX] | 4.43 ± 0.36 | 4.44 ± 0.26 |

| Sequence | protein stability index (treatment: DMSO) | protein stability index (treatment: MLN4924 1 uM, 8 h) |
| --- | --- | --- |
| LGYCLLLMLAGMGLHYIAFRKVKQ [DNAJC4] | 3.18 ± 0.28 | 3.11 ± 0.38 |
| IYRHRIPSTICFGQGAARGFKSNK [ZNF511] | 3 ± 0.37 | 3.64 ± 0.13 |
| SYSQSSNLFRHQRRHNAEKLLNVV [ZNF24] | 2.58 ± 0.27 | 2.97 ± 0.41 |
| IGGNHLKGFSHLDVMLVECYDPKG [KLHL14] | 2.11 ± 0.47 | 2.21 ± 0.34 |
| LSRRQLCPLTPGPGKALGPAATMA [C2CD2L] | 2.93 ± 0.37 | 3.13 ± 0.38 |
| PFREQSFLCAAGDAGEESRVQVLK [TIAF1] | 4.54 ± 0.25 | 4.6 ± 0.16 |
| PSLSPGAFSYSSSSRFSSSRLLGS [PRPH] | 3.29 ± 0.23 | 3.28 ± 0.16 |
| LAESGGSPDVLQMLKIHRSDPQLI [TRADD] | 3.16 ± 0.43 | 3.36 ± 0.24 |
| RYRGLGLLASVPSNPNGNGGFMGY [CRY1] | 2.53 ± 0.14 | 2.91 ± 0.19 |
| KPTVFIGVPQIWEKIHEMVKKNSA [ACSBG2] | 2.75 ± 0.34 | 2.47 ± 0.81 |
| KNTSEQDQPMGGWEMIRKIGDTSV [LMNB1] | 4.27 ± 0.18 | 4.43 ± 0.22 |
| DETLSSSHQKCPQLGGPEASGGLV [PLEKHN1] | 4.97 ± 0.1 | 4.8 ± 0.31 |
| ALLIVDSATALYRTDYSGRGELSA [RAD51] | 2.17 ± 0.33 | 2.27 ± 0.42 |
| ISVQELMGCLGVAKEDGKADTKKR [SMOC2] | 3.88 ± 0.33 | 3.92 ± 0.59 |
| DDAGTSGGPSSPPSDPPAMSPGPL [C2CD2L] | 5.38 ± 0.38 | 5.37 ± 0.32 |
| NTFFCHSNMCINNTLVCNGLQNCV [NETO1] | 2.13 ± 0.41 | 2.07 ± 0.38 |
| QYPGNYEQQQILIRQLQEQHYQQY [ACBD3] | 3.17 ± 0.26 | 3.24 ± 0.18 |
| RLKLMQQNPAGELEGFQAQGHPPS [ATE1] | 4.29 ± 0.18 | 4.31 ± 0.12 |
| VVPPTPPVVKKKGVKRKADTTTPT [BRD3] | 4.9 ± 0.39 | 4.82 ± 0.31 |
| VPLARSLQISEELLSRNQLSTAAS [LCOR] | 3.67 ± 0.097 | 3.73 ± 0.076 |
| SESSLEMDDERYFNEMSAQGLRPR [CCDC6] | 4.78 ± 0.2 | 4.85 ± 0.22 |
| KRGGNCPAPAPLVPQDPDLEEEEE [ZBTB22] | 5.56 ± 0.26 | 5.59 ± 0.21 |
| QVYYFGPCGKYNAMVLELLGPSLE [CSNK1G1] | 3.52 ± 1.8 | 1.92 ± 0.25 |

| Sequence | protein stability index (treatment: DMSO) | protein stability index (treatment: MLN4924 1 uM, 8 h) |
| --- | --- | --- |
| LLSLKQNHEQEVNTLRCQLGDRLN [KRT33B] | 3.38 ± 0.16 | 3.46 ± 0.2 |
| DPHNSRRGFFFSHVGWLLVRKHPA [SCD] | 2.33 ± 0.27 | 2.3 ± 0.35 |
| HCPDCGQQWFPSLELGHWLYQTEL [TOR1AIP2] | 2.31 ± 0.57 | 2.52 ± 0.41 |
| RKQARQLENELDLKLVSFSKLCTS [GOSR1] | 3.03 ± 0.34 | 3.22 ± 0.54 |
| LHLLYLLEKVECTPSQEHLKHQTV [FEM1A] | 2.29 ± 0.43 | 2.23 ± 0.26 |
| SMENANQENEEKEQVANKGEPLAL [BEX1] | 5 ± 0.26 | 5.11 ± 0.22 |
| KQQREKTRWLNSGRGDEASEEGQN [ADD1] | 5.54 ± 0.16 | 5.48 ± 0.26 |
| KYLTYDQLRKQKKKTGKSSTTALG [ELOA2] | 3.35 ± 0.083 | 3.79 ± 0.34 |
| LEPLGAPQAPAPATATDTFEAAPP [CEBPB] | 5.38 ± 0.42 | 5.39 ± 0.44 |
| CEKTFRDKNTLKDHMRKKQHRKIN [ZNF277] | 3.77 ± 0.21 | 3.71 ± 0.31 |
| VSFLRSGTKLIFRRRPRQKEAGLS [C2CD2L] | 2.75 ± 0.74 | 3.1 ± 0.24 |
| LTSQNIEIKLVSDVTADSKVLEAL [PLD5] | 3.13 ± 0.31 | 3.18 ± 0.43 |
| KAMFSGRVEVLTDAGGWVLIDRSG [KCTD13] | 2.19 ± 0.21 | 2.48 ± 0.47 |
| ISENRKRQWPTKSQTDRGASAGKR [SDE2] | 4.7 ± 0.28 | 4.94 ± 0.073 |
| IKKIEEHAPGVPKILVGNRLHLAF [RAB40A] | 2.39 ± 0.5 | 2.27 ± 0.2 |
| MSVNVNRSVSDQFYRYKMPRLIAK [EIF5] | 2.52 ± 0.14 | 2.77 ± 0.29 |
| VKRKMDGREYPDAQGFAADVRLMF [BRD3] | 2.44 ± 0.043 | 2.58 ± 0.18 |
| ASESEHIPKPQSTGWFGGGFTSYL [MIA2] | 2.4 ± 0.37 | 2.69 ± 0.34 |
| DLKARIDQNTVVTRQLSEENANLQ [MTUS2] | 4.83 ± 0.14 | 4.93 ± 0.083 |
| LLPKGSKEEQRDYVFYLAVGNYRL [FIS1] | 2.63 ± 0.56 | 2.15 ± 0.063 |
| KSYIFEGALGMSNRDSYFYAAIVA [VMA21] | 2.96 ± 0.66 | 2.6 ± 0.46 |
| KKQDENEGIKVEDLLFIVDTMLEE [CEP70] | 3.25 ± 0.22 | 3.27 ± 0.23 |
| LAEGVSASLHTLLGDPCPMLESPG [HDAC6] | 4 ± 0.28 | 4.17 ± 0.29 |

| Sequence | protein stability index (treatment: DMSO) | protein stability index (treatment: MLN4924 1 uM, 8 h) |
| --- | --- | --- |
| QTESELQELSEVLELLSAPELKSL [FAN1] | 4.1 ± 0.19 | 4.11 ± 0.11 |
| SNLSTRDASILTEMPTQPGKPLIP [NETO1] | 4.52 ± 0.18 | 4.57 ± 0.26 |
| DSRRIFVGQDNGAVMEFHVSEDFN [WDFY1] | 4.07 ± 0.32 | 4.22 ± 0.11 |
| PEEGQQPWLCGESFTLADVSLAVT [GDAP1] | 3.27 ± 0.23 | 3.4 ± 0.21 |
| CNECGKAFRWGAHLVQHQRIHSGE [ZNF232] | 4.44 ± 0.56 | 4.53 ± 0.26 |
| HVLPAVLAEVAPVVTTEHILVSVA [PYCR3] | 2.65 ± 0.63 | 2.8 ± 0.72 |
| GCKGFFRRSMKRKALFTCPFNGDC [VDR] | 2.47 ± 0.43 | 2.21 ± 0.14 |
| RALQAALAESGGSPDVLQMLKIHR [TRADD] | 2.61 ± 0.34 | 2.91 ± 0.25 |
| ERYEIDSLIGKGSFGQVVKAYDHQ [DYRK1B] | 3.92 ± 0.21 | 4.02 ± 0.17 |
| TRWCHIVRDSDSLAESEFESAAFS [PHTF1] | 3.45 ± 0.054 | 3.33 ± 0.29 |
| DHARGKSQVALKIIRNVGKYREAA [CLK3] | 3.15 ± 0.18 | 3.33 ± 0.19 |
| SKETRLTLMEEVLLLGLKDREGYT [GOLPH3] | 2.8 ± 0.22 | 2.75 ± 0.28 |
| REEVRGRELTGLKALYETELADAR [LMNB1] | 4.97 ± 0.2 | 4.83 ± 0.27 |
| KSKAELQSEERKRIDELIESGKEE [KMT5A] | 5.59 ± 0.25 | 5.67 ± 0.21 |
| SATNVTCYYQPAPYVSDGNFSNYY [TENT5C] | 2.05 ± 0.29 | 2.14 ± 0.28 |
| EVYQEVQAMFDTLGIPKSTTSDIP [FAM98B] | 3.09 ± 0.31 | 3.5 ± 0.49 |
| HCRKCGQAVCGKCSSKRSSYPVMG [WDFY1] | 3.88 ± 0.3 | 3.91 ± 0.34 |
| LAGPNDRSDVEKGGKIIMPPSALD [UFD1] | 4.77 ± 0.11 | 4.97 ± 0.2 |
| ADTRRLNSKPQDLTDAYGPPSNFL [SNX12] | 3.97 ± 0.22 | 3.93 ± 0.068 |
| TSRRSGVGLAVVNGQLMAVGGFDG [KLHL20] | 2.99 ± 0.23 | 2.94 ± 0.41 |
| GVRESETEQGFGEDLEDLGAVAPP [NFE2L1] | 5.763 ± 0.026 | 5.9 ± 0.1 |
